Data on 3 molecules can be found in patent US20240366775A1 (PEPTIDREAM, published 2024).

In this assay the target is T1, recombinant hTfR described in Example 2 of WO2018/124121, random biotinylated (human, UniProt P02786 89-760, randomly biotinylated with NHS-PEG4-Biotin).
T1 construct: held on a streptavidin plate for ELISA; also called human TfR
As to the kind of experiment: ELISA, target on streptavidin plate, sample at 100 nM, anti-human IgG-HRP. A general note: In an ELISA, binding on a coated surface is turned into a signal by an enzyme label.

T1 sequence (P02786 89-760 limits assumed): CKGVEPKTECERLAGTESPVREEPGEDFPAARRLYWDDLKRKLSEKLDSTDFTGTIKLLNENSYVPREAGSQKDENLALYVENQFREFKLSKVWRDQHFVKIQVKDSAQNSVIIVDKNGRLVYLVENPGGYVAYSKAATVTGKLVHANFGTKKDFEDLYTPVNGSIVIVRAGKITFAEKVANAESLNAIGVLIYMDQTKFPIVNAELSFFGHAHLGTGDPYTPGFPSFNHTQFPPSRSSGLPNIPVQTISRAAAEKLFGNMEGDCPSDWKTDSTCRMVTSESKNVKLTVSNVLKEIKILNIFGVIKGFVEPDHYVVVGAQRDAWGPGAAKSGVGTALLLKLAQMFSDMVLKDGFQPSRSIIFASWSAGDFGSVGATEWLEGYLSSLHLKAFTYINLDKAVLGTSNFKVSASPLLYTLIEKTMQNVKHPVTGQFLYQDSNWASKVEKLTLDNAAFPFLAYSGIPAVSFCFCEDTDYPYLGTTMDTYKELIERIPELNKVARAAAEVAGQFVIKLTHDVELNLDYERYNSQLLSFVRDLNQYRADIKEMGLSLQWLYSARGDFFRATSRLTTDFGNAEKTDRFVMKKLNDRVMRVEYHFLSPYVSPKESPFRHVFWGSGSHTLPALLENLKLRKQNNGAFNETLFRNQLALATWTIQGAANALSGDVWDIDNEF

B1: nivolumab (Selleckchem, Cat. No. A2002) (antibody, V domains shown)
VH: QVQLVESGGGVVQPGRSLRLDCKASGITFSNSGMHWVRQAPGKGLEWVAVIWYDGSKRYYADSVKGRFTISRDNSKNTLFLQMNSLRAEDTAVYYCATNDDYWGQGTLVTVSS
VL: EIVLTQSPATLSLSPGERATLSCRASQSVSSYLAWYQQKPGQAPRLLIYDASNRATGIPARFSGSGSGTDFTLTISSLEPEDFAVYYCQQSSNWPRTFGQGTKVEIK
On to B1, for which the “Abs450 nm at 100 nM” value was found to be 0.049 Abs450 nm.

B2: pembrolizumab (Selleck Biotech Co., Ltd., Cat. No. A2005) (antibody, V domains shown)
VH: QVQLVQSGVEVKKPGASVKVSCKASGYTFTNYYMYWVRQAPGQGLEWMGGINPSNGGTNFNEKFKNRVTLTTDSSTTTAYMELKSLQFDDTAVYYCARRDYRFDMGFDYWGQGTTVTVSS
VL: EIVLTQSPATLSLSPGERATLSCRASKGVSTSGYSYLHWYQQKPGQAPRLLIYLASYLESGVPARFSGSGSGTDFTLTISSLEPEDFAVYYCQHSRDLPLTFGGGTKVEIKR
For B2, the “Abs450 nm at 100 nM” value was 0.041 Abs450 nm.

B3: ipilimumab (Selleck Biotech Co., Ltd., Cat. No. A2001) (antibody, V domains shown)
VH: QVQLVESGGGVVQPGRSLRLSCAASGFTFSSYTMHWVRQAPGKGLEWVTFISYDGNNKYYADSVKGRFTISRDNSKNTLYLQMNSLRAEDTAIYYCARTGWLGPFDYWGQGTLVTVSS
VL: not shown
For B3, the “Abs450 nm at 100 nM” value was determined as 0.0435 Abs450 nm.
